Drawing on patent publication US20030180744A1, this text covers IC50, Kd and Ki for one molecule.

The target in assay [1] is hKGF receptor on the surface of PC-3 prostatic carcinoma cells (UniProt P21802). The assay can be described thus: competition of unlabeled hKGF with 125I-hKGF for binding to PC-3 cells.
The target is the same in assay [2]. Briefly: value used to calculate Ki from IC50 in the PC-3 cell assay (FIG. 12 legend).
Assay [3] has the same target. Briefly: saturation binding of 125I-hKGF on PC-3 cells, Scatchard analysis.
For assay [4] the target is unchanged. The assay can be described thus: competition of unlabeled hKGF with 125I-hKGF for binding to PC-3 cells, full competition curve.
The target in assay [5] is human KGF receptor on transfected NIH3T3 cells (NIH3T3/FGFR-2) (human) (UniProt P21802). The assay can be described thus: competition of unlabeled hKGF with 125I-hKGF for binding to NIH3T3/FGFR-2 cells, with 1 ug/ml heparin.

B1: Recombinant human Keratinocyte Growth Factor (hKGF) (ligand, UniProt P21781 32-194, looked up)
chain: CNDMTPEQMATNVNCSSPERHTRSYDYMEGGDIRVRRLFCRTQWYLRIDKRGKVKGTQEMKNNYNIMEIRTVAVGIVAIKGVESEFYLAMNKEGKLYAKKECNEDCNFKELILENHYNTYASAKWTHNGGEMFVALNQKGIPVRGKKTKKEQKTAHFLPMAIT
Take B1: the IC50 (in general, the concentration at which inhibition is half-maximal) in assay [1] turned out to be 70 nM. Besides, the Kd (commonly the constant that tells how readily two partners part at equilibrium) is 0.15 nM in assay [2] and 0.1 to 0.2 nM in assay [3]. Further, the figures for the inhibition constant (Ki) in assay [4] and in assay [5] were 7.7 nM and 0.034 nM, respectively.
